Experimental data published in the supplement of paper PMC7877785.
± gives the uncertainty stated by the source.

Test: self-splicing fitness, log relative to wild type (ln ratio); higher = more splicing; Tetrahymena group I intron in knt gene, E. coli kanamycin selection, DiMSum; sequences stand for … in CUCUCU…GGAGGGAAAAGUUAUCAGGCAUGCACCUGGUAGCUAGUCUUUAAACCAAUAGAUUGCAUCGGUUUAAAAGGCAAGACCGUCAAAUUGCGGGAAAGGGGUCAACAGCCGUUCAGUACCAAGUCUCAGGGGAAACUUUGAGAUGGCCUUGCAAAGGGUAUGGUAAUAAGCUGACGGACAUGGUCCUAACCACGCAGCCAAGUCCUAAGUCAACAGAUCUUCUGUUGAUAUGGAUGCAGUUCACAGACUAAAUGUCGGUCGGGGAAGAUGUAUUCUUCUCAUAAGAUAUAGUCGGACCUCUCCUUAAUGGGAGCUAGCGGAUGAAGUGAUGCAACACUGGAGCCGCUGGGAACUAAUUUGUAUGCGAAAGUAUAUUGAUUAGUUUUGGAGUACUCGUGGUCG
In short: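 A randomised library covering all eight P1ex-region intron nucleotides was built with the intron in the knt kanamycin-resistance gene on pET-22b(+) and held in E. coli BL21(DE3). Cells were grown overnight at 37°C or 30°C on LB agar, with or without 25 μg/mL kanamycin, plus 100 μg/mL carbenicillin, 50 μM IPTG and 0.2% rhamnose, and pooled colonies were amplicon-sequenced on an Illumina HiSeq 2500. DiMSum fitness is the error-weighted combination of wild-type-normalised replicate fold changes, kanamycin versus none.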

| Sequence | self-splicing fitness (ln) (30 °C) | self-splicing fitness (ln) (37 °C) |
| --- | --- | --- |
| AAGCAGCAAUAUUACGGGGU | -3.21 ± 0.13 | -2.56 ± 0.16 |
| AAGCAGCAAUAUUACGGGUC | -3.12 ± 0.12 | -2.61 ± 0.18 |
| AAGCAGCAAUAUUACGGUCU | -0.0787 ± 0.043 | 0.176 ± 0.063 |
| AAGCAGCAAUAUUACGGUUU | -2.78 ± 0.12 | -0.354 ± 0.096 |
| AAGCAGCAAUAUUACGUCGA | -1.03 ± 0.12 | -0.392 ± 0.11 |
| AAGCAGCAAUAUUACGUUCA | -0.676 ± 0.056 | 0.0201 ± 0.064 |
| AAGCAGCAAUAUUACGUUGA | -2.89 ± 0.13 | -1.51 ± 0.11 |
| AAGGAGCAAUAUUACGAAGA | -3.41 ± 0.29 | -3.13 ± 0.37 |
| AAGGAGCAAUAUUACGAAUG | -2.39 ± 0.22 | – |
| AAGGAGCAAUAUUACGACUC | -1.25 ± 0.15 | -0.365 ± 0.17 |
| AAGGAGCAAUAUUACGAGGU | -3.6 ± 0.23 | -3.6 ± 0.47 |
| AAGGAGCAAUAUUACGAUAA | -3.46 ± 0.25 | -1.94 ± 0.18 |
| AAGGAGCAAUAUUACGAUCU | -0.603 ± 0.085 | -0.731 ± 0.11 |
| AAGGAGCAAUAUUACGCGGG | -3.76 ± 0.46 | – |
| AAGGAGCAAUAUUACGCGUU | -2.22 ± 0.17 | -2.15 ± 0.23 |
| AAGGAGCAAUAUUACGCUUU | -3.83 ± 0.32 | -2.93 ± 0.38 |
| AAGGAGCAAUAUUACGGCUC | -4.14 ± 0.37 | -2.77 ± 0.36 |
| AAGGAGCAAUAUUACGGUAU | -3.5 ± 0.26 | -2.06 ± 0.31 |
| AAGGAGCAAUAUUACGUCAU | -3.84 ± 0.2 | -2.94 ± 0.24 |
| AAGGAGCAAUAUUACGUCGC | – | -1.49 ± 0.35 |

| Sequence | self-splicing fitness (ln) (30 °C) | self-splicing fitness (ln) (37 °C) |
| --- | --- | --- |
| AAGGAGCAAUAUUACGUGAG | -3.51 ± 0.25 | -2.5 ± 0.21 |
| AAGGAGCAAUAUUACGUGGA | -2.36 ± 0.2 | -1.75 ± 0.2 |
| AAGGAGCAAUAUUACGUUAU | -2.99 ± 0.2 | -1.59 ± 0.22 |
| AAGGAGCAAUAUUACGUUCG | -1.78 ± 0.11 | -0.665 ± 0.2 |
| AAGGAGCAAUAUUACGUUGG | -4.4 ± 0.27 | -2.5 ± 0.25 |
| AAGUAGCAAUAUUACGAACC | -1.4 ± 0.36 | -1.57 ± 0.25 |
| AAGUAGCAAUAUUACGACCC | 0.421 ± 0.3 | 0.212 ± 0.29 |
| AAGUAGCAAUAUUACGAGAU | -2.66 ± 0.16 | -1.34 ± 0.15 |
| AAGUAGCAAUAUUACGAGCA | -1.52 ± 0.15 | -0.816 ± 0.14 |
| AAGUAGCAAUAUUACGAUGU | -1.23 ± 0.1 | -0.476 ± 0.12 |
| AAGUAGCAAUAUUACGCGCA | -0.196 ± 0.11 | 0.0802 ± 0.13 |
| AAGUAGCAAUAUUACGGACC | – | -0.466 ± 0.37 |
| AAGUAGCAAUAUUACGGAGU | -2.54 ± 0.2 | -1.9 ± 0.22 |
| AAGUAGCAAUAUUACGGCAA | 0.196 ± 0.18 | -0.154 ± 0.22 |
| AAGUAGCAAUAUUACGGCAC | -1.17 ± 0.17 | -0.552 ± 0.17 |
| AAGUAGCAAUAUUACGGCGU | -0.422 ± 0.091 | 0.27 ± 0.11 |
| AAGUAGCAAUAUUACGGGAU | -3.14 ± 0.15 | -1.61 ± 0.14 |
| AAGUAGCAAUAUUACGGGCU | -2.02 ± 0.12 | -1.44 ± 0.13 |
| AAGUAGCAAUAUUACGGUGA | -1.03 ± 0.11 | -0.771 ± 0.14 |
| AAGUAGCAAUAUUACGGUUA | -0.841 ± 0.087 | -0.334 ± 0.085 |
